B1: CPEB3 Ribozyme (parent)
chain: UAACAGGGGGCCACAGCAGAAGCGUUCACGUCGCAGCCCCUGUCAGAUUCUGGUGAAUCUGCGAAUUCUGCUGUAUAUCUC

Variants of: B1
Assay: self-cleavage, relative activity (ratio to wild type); higher = more cleavage; in vitro, sequencing
Procedure, shortened: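 Relative activity was defined as the cleaved/total read fraction for a variant divided by the same fraction for the unmutated ribozyme. CPEB3 self-cleaving ribozyme libraries were made by rounds of error-prone PCR, barcoded, and transcribed in vitro with T7 RNA polymerase for 5 hours at 37°C, and cleavage ran through transcription plus a 15 min DNase I step before EDTA. Illumina sequencing of template-switched reverse transcripts gave the reads, and DNA sequencing mapped the barcodes. Averages come from three batches, using variants with at least 5 reads.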

Variant | self-cleavage
G52A U74C | 1.26
G53A U69A | 0.67
G53A U69C | 0.69
G53A A57G | 0.97
G52U U74C | 1.28
G52U U74A | 1.26
G53A C59U | 1.07
G53A C59A | 0.58
G52A A77U | 0.98
U51G U58C | 0.37
U51G U69G | 0.49
U51G U69C | 0.62
G53C G55A | 0.98
G53A U72G | 1.22
G53A U72C | 1.23
G53A U72A | 0.79
G52U G63U | 1.2
G52U G63A | 0.99
G52C G70U | 0.53
U51G G70A | 0.69
G52C A77G | 1.16
G52C A77C | 1.11
G53A U66C | 0.53
G53A U60A | 0.68

Variant | self-cleavage
G53A U60C | 0.69
G52U | 1.13
G52C | 1.05
G52A | 1.14
G52U U76G | 1.19
G52U U76C | 1.19
G52U U76A | 1.24
G52U U69A | 0.72
G52U U69C | 0.73
G53A G73C | 1.14
G53C C71U | 0.57
G53C U67C | 0.17
G53C U67G | 0.54
G53C A56G | 0.53
G52A U72A | 1.13
G52A U72G | 0.94
G52A U72C | 1.21
G53A C79U | 1.18
G53A C79A | 1.22
G52A A57G | 0.99
U51G U76A | 1.19
U51G U76C | 1.17
G52U A64G | 1.08
G52U A64U | 0.39

Variant | self-cleavage
G53A A75C | 1.18
G52A U78C | 1.13
G52A U78A | 1.19
G52A A56U | 1.14
G52A A56G | 1.19
G52U A56G | 1.14
G53A G55A | 0.87
G53A G55C | 1.01
G53C A65G | 0.67
G53C A57G | 1.1
U51G U78C | 0.97
G52U U54A | 1.09
G52U U54C | 1.14
G52U C68U | 1.19
G53C A75G | 1.16
G53C A75U | 1.12
G52A A75G | 0.99
G53C U58C | 0.68
G52U U80C | 1.05
G53A U80A | 1.18
G53A U80C | 1.17
G53A U76C | 1.01
G52A U67A | 0.51
G52U G61A | 1.02

Variant | self-cleavage
G52U G61C | 0.22
G52A G53A | 1.13
G52C U69C | 0.86
U51G U54A | 1.28
U51G U54C | 1.06
U51G U54G | 0.24
G52C G61C | 0.34
G53C U69A | 0.49
G53C U69C | 0.64
G52U U67C | 0.32
G52U U67A | 0.71
G52U U67G | 0.33
G53C C62G | 0.29
G53A A56G | 1
G53A A56U | 0.79
G52A U54C | 1.09
G52A U54A | 1.16
G52A U54G | 1.16
G52A U58A | 0.5
G52A U58C | 0.68
G52A U58G | 0.34
G52U U78C | 1.08
G53A U54C | 0.92
G53A G61A | 0.73

Variant | self-cleavage
G52C A56G | 1.12
G52U A65G | 0.51
G52U A65U | 0.28
G52C U72C | 1.24
G52C U72A | 1
G53A A65G | 0.52
G53A A65U | 0.22
G52C C68U | 1.18
G52C A65U | 0.32
G52C A65G | 0.49
G53C U76A | 1.22
G53C U76C | 1.06
G52U U58C | 0.87
G52A U69G | 0.98
G52A U69A | 0.84
G52A U69C | 0.62
U51G U80A | 1
U51G U80C | 1.11
G52A U60A | 0.4
G52A U60C | 0.78
G52A U60G | 0.44
G52A U66A | 0.66
G52A U66G | 0.76
G52C U80A | 1.22

Variant | self-cleavage
G52C U80C | 1.2
G52A U76G | 1.15
G52A U76C | 1.06
G52C U74A | 1.28
G52A A65G | 0.53
U51G G63A | 0.98
U51G G63U | 1.1
G53A U78C | 1.06
U51G U60A | 0.78
U51G U60C | 0.39
G53C A64G | 1.05
G53C A64U | 0.42
G52C A64G | 1.04
G53A G70U | 0.44
G53A G70A | 0.62
U51G U72G | 0.57
U51G U72C | 0.95
U51G U72A | 0.91
G52U U72A | 0.73
G52U U72G | 0.99
G53C | 1.13
G53A | 1.13
G53A A64U | 0.48
G53A A64G | 0.98

Variant | self-cleavage
U51G U74A | 1.14
G53A U67A | 0.55
G53A U67C | 0.41
G52A U80A | 1.15
G52A U80C | 1.18
U51G U66C | 0.21
G53C U72C | 1.21
G53C U72A | 1.19
G53C U60C | 0.55
G53C U60A | 0.56
G53A A77G | 1.18
G53A U58A | 0.48
G53A U58G | 0.24
G53A U58C | 0.98
G52C U67C | 0.57
G52C U67A | 0.88
U51G U67A | 0.43
U51G U67C | 0.17
G52A A64G | 1.03
G52U U66C | 0.54
G52U U66A | 0.64
G52C U54A | 1.14
G52C U54G | 1.12

Reference: the RNAGym collection of RNA variant scans (doi:10.1093/nar/gkz1192)
